Test results reported in patent publication CN107674122A (TIANJIN TIMMUNE BIOTECH INC, dated 2018).

B1: HE9 单域抗体 (phage-displayed clone, culture supernatant) (VHH)
VHH: QVQLLESGGGLVQPGGSLRLSCAASGFMVTSEIMGWVRQAPGKGLEWVSTIVANNGSTYYADSVKGRFTISRDNSKNTLYLQMNSLRAEDTAVYYCASPPRRTGVDGTESMHFWGQGTLVTVSS
notes: Human heavy-chain single domain antibody on a DP47 framework; Tested in ELISA as phage in culture supernatant; not shown: Myc and VSV-G tags and phage GIII protein of display vector pBG3
B2: HF11 单域抗体 (phage-displayed clone, culture supernatant) (VHH)
VHH: QVQLLESGGGLVQPGGSLRLSCAASGVKISYESMAWVRQAPGKGLEWVSSILMQNGSTYYADSVKGRFTISRDNSKNTLYLQMNSLRAEDTAVYYCATTRVRRPANMKYWGQGTLVTVSS
notes: as for B1
B3: 融合蛋白HF11-FC (expressed from pcDNA3.1 in 293F cells) (Fc fusion)
chain: B2 VHH
notes: The secreted protein was purified on Protein A; not shown: human Fc; residues encoded by the BamHI site between the single domain antibody and Fc; no
B4: HB5 单域抗体 (phage-displayed clone, culture supernatant) (VHH)
VHH: QVQLLESGGGLVQPGGSLRLSCAASGVKAINHTMGWVRQAPGKGLEWVSAIRTPDGSTYYADSVKGRFTISRDNSKNTLYLQMNSLRAEDTAVYYCASVGDNAGSSSPPFASWGQGTLVTVSS
notes: Human heavy-chain single domain antibody on a DP47 framework; Tested in ELISA as phage in culture supernatant, detected with an HRP-labelled anti-phage antibody; not shown: Myc and VSV-G tags and phage GIII protein of display vector pBG3

How the values were obtained:
[1] = target: IgG (coated control antigen); experiment: phage ELISA, IgG coated, A650
[2] = target: T1, 人血清白蛋白 (human serum albumin) (human, UniProt P02768 25-609); experiment: phage ELISA, HSA coated, A650
T1 construct: also called HSA
T1 sequence (P02768 25-609 limits assumed): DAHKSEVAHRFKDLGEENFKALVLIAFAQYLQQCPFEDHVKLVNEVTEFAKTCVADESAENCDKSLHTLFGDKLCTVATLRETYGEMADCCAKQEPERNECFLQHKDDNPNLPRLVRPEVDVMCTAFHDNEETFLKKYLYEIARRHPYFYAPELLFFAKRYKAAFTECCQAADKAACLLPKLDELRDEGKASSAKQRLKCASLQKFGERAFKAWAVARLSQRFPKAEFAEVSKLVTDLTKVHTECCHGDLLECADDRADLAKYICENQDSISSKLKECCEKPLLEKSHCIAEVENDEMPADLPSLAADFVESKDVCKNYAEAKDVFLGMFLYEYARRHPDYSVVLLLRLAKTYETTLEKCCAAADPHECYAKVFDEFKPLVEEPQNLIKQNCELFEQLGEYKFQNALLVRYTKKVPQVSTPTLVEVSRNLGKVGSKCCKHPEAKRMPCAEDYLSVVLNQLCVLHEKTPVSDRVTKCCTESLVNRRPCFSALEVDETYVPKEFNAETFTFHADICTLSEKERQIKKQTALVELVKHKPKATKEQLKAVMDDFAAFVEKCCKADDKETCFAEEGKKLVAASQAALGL

[3] = target: T2, 牛血清白蛋白 (bovine serum albumin) (bovine, UniProt P02769 25-607); experiment: ELISA, antigen coated, purified HF11-FC, A650
T2 construct: also called BSA
T2 sequence (P02769 25-607 limits assumed): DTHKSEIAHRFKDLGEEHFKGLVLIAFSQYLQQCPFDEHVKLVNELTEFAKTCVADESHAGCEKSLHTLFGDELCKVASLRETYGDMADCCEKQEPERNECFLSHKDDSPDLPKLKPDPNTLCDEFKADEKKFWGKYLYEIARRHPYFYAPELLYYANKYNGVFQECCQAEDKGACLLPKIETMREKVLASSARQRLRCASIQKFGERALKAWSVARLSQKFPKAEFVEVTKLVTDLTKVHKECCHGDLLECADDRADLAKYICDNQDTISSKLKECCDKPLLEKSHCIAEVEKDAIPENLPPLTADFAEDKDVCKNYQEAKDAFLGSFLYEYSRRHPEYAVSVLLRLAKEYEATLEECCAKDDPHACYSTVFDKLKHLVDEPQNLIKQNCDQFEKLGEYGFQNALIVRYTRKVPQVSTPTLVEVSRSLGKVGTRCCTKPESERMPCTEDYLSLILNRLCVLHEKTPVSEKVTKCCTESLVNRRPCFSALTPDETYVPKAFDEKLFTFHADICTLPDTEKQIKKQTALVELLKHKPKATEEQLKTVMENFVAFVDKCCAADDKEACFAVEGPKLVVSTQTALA

[4] = target: T1, 人血清白蛋白 (human serum albumin); experiment: ELISA, HSA coated, A650

Binder	A650 [1]	binding result [2]	binding result [3]	binding result [4]
B1	≤ 0.3 A650	binds		
B2	≤ 0.3 A650			
B3			no binding	binds
B4	≤ 0.3 A650	binds		
